Experimental data taken from PMC10673124.

Target: Elastase (UniProt P00772)
Chain of UniProt P00772 (P00772 27-266): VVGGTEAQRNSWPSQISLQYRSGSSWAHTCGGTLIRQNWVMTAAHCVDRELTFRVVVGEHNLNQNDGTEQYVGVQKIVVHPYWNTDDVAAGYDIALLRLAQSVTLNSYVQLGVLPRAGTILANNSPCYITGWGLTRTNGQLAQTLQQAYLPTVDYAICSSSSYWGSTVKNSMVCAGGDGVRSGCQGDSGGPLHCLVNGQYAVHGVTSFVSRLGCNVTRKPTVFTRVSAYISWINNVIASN

- elastase inhibitory activity (%), peptide at 10-20 mM, substrate N-Succinyle-Ala-Ala-Ala-pNA: 76.3%
Binder: VGVPGVGVPGVGVPGV [S1 (…)]
